Data reported in US20200071711, “MODULAR CONSTRUCTION OF SYNTHETIC GENE CIRCUITS IN MAMMALIAN CELLS USING MATHEMATICAL MODELING OF CLOSED LOOP TRANSCRIPTIONAL REPRESSORS” (Tsinghua University, published 2020).

Key:
Assay in all cases: cell_activity; HEK293, two sites flanking CMVmini
Details in all cases: tags: EYFP-2A upstream, SV40 NLS
TALER12 = target: T1, TALER12 (synthetic, UniProt Q56830 SEQ:262-1344)
T1 chain: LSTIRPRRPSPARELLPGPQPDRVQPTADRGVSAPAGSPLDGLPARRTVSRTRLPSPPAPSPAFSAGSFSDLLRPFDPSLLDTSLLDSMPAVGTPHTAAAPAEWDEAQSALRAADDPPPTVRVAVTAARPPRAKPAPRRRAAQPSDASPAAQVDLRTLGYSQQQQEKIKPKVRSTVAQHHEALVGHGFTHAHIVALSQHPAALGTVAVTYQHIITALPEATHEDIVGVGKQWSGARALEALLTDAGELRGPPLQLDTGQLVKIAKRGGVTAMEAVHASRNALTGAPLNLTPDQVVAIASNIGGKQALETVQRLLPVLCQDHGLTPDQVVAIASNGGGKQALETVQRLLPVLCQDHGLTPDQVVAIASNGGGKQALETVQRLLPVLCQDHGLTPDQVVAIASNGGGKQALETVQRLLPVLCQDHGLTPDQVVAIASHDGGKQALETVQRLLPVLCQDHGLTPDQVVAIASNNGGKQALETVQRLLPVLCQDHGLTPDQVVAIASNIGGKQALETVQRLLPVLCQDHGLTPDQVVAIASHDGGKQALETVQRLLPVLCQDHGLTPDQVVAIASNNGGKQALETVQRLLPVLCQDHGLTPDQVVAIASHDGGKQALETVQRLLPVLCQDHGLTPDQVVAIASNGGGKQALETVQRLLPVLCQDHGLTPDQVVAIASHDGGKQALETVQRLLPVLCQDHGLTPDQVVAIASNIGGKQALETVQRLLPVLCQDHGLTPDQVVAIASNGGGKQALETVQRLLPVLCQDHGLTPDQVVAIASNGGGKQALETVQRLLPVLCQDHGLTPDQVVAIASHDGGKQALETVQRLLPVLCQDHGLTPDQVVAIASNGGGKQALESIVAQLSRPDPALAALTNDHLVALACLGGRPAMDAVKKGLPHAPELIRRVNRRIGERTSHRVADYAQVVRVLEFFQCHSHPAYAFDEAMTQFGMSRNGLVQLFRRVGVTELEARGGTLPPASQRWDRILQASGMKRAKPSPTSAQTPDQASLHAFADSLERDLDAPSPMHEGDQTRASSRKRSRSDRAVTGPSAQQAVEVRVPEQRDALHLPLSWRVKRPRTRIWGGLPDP

TALER18 = target: T2, TALER18 (synthetic, UniProt B2SU53 SEQ:1-1010)
T2 chain: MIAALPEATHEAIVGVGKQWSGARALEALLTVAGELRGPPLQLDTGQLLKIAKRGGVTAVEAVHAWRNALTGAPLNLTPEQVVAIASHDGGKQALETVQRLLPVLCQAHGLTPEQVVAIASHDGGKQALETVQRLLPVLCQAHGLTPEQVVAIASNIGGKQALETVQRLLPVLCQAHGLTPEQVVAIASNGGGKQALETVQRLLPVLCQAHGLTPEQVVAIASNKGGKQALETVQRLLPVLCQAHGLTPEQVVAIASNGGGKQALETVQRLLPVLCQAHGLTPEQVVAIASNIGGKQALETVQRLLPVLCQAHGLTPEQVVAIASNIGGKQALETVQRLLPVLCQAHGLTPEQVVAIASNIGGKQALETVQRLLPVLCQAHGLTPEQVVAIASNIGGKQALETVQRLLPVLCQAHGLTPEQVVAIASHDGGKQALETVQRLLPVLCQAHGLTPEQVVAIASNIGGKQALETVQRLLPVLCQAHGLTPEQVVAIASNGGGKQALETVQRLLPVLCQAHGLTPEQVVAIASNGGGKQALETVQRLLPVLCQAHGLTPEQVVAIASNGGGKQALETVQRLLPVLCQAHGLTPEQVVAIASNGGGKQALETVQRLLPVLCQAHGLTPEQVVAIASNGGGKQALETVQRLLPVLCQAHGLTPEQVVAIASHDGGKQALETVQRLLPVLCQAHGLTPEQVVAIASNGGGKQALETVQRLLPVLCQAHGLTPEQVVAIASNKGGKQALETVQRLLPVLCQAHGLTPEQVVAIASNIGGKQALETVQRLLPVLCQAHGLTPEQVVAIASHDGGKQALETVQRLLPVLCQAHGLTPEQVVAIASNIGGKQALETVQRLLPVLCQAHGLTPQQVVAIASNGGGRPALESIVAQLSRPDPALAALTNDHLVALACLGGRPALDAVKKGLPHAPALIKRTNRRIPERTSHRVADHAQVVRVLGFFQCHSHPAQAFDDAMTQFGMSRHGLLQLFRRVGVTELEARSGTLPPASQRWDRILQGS

TALER20 = target: T3, TALER20 (synthetic, UniProt B2SU53 SEQ:1-1010)
T3 chain: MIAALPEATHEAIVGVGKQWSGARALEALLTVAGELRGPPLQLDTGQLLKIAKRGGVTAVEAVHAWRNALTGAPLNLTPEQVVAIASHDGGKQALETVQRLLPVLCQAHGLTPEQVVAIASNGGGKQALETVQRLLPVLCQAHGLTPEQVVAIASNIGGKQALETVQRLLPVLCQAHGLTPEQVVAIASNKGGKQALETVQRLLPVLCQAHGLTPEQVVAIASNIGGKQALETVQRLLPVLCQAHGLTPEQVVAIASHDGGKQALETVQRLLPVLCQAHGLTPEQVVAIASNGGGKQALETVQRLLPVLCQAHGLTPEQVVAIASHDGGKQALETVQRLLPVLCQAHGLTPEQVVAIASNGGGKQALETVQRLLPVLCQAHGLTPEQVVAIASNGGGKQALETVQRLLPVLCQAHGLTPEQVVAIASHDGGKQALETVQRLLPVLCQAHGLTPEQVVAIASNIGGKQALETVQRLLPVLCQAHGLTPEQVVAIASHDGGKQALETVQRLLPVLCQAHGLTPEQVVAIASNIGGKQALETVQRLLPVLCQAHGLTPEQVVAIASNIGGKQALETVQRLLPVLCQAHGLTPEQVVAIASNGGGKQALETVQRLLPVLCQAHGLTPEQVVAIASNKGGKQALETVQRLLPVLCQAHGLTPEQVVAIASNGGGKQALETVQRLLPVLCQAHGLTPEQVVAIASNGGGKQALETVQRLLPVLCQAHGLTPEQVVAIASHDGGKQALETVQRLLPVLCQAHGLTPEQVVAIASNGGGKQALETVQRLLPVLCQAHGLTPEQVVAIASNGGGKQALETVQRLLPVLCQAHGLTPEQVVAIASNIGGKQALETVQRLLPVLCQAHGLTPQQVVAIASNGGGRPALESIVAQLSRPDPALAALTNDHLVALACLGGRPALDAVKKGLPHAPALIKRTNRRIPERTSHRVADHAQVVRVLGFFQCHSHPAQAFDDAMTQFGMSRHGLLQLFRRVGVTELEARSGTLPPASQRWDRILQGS

TALER17 = target: T4, TALER17 (synthetic, UniProt B2SU53 SEQ:1-1010)
T4 chain: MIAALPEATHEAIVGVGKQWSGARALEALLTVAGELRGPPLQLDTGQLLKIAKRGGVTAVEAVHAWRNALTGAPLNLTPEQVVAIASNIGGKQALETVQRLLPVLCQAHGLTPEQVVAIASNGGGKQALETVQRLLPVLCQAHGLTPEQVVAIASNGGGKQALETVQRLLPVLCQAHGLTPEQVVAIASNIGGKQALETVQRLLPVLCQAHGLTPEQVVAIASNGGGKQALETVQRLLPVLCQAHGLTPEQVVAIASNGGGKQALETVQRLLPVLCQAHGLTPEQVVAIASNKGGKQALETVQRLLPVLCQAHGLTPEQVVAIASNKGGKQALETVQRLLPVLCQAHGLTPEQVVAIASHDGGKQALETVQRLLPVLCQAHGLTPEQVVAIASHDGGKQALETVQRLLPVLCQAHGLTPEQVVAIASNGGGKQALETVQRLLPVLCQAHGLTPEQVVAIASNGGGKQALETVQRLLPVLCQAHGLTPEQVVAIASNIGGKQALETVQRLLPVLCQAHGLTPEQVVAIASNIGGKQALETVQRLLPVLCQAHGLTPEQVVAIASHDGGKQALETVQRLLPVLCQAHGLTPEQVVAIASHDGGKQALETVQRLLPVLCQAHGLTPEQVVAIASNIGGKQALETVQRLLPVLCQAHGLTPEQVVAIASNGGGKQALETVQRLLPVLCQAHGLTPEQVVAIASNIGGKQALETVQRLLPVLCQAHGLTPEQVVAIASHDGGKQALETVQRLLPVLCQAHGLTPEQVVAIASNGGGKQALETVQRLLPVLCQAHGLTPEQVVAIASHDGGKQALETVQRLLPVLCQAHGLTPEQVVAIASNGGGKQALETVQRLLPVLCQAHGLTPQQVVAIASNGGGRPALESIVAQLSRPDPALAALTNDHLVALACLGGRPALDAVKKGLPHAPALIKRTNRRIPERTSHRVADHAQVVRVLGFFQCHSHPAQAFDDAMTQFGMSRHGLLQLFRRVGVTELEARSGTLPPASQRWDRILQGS

TALER15 = target: T5, TALER15 (synthetic, UniProt B2SU53 SEQ:1-1010)
T5 chain: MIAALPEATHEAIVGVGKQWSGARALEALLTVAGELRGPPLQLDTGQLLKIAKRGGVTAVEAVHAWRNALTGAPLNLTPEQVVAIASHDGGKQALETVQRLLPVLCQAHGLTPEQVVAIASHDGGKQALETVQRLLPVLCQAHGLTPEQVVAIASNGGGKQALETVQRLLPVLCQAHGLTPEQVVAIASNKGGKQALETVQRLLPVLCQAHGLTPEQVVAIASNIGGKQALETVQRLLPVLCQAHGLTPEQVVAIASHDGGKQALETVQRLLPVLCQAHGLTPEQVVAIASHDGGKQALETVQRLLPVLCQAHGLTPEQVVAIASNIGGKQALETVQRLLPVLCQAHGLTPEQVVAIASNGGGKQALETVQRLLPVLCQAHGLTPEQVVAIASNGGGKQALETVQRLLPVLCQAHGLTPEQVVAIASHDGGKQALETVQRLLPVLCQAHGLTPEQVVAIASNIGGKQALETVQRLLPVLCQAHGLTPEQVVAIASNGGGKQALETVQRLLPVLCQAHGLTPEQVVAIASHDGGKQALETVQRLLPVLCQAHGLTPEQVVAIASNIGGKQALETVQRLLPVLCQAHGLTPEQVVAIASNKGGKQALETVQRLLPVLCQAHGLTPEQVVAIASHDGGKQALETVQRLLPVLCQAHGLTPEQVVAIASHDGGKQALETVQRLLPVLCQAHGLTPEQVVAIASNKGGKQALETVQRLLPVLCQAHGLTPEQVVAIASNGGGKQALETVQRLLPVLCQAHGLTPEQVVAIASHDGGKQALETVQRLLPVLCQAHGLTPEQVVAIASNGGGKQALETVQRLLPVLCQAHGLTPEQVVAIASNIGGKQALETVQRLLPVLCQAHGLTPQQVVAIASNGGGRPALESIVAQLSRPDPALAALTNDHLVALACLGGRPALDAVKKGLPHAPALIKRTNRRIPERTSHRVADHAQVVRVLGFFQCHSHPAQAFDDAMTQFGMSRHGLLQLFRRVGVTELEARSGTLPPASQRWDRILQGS

B1: T12 site (dsDNA)
DNA 1: TATTTCGACGCTCATTCT
DNA 2: AGAATGAGCGTCGAAATA
binding signal (TALER12): 1220 fold repression

B2: T18 site (dsDNA)
DNA 1: TCCATGTAAAACATTTTTCTGACAT
DNA 2: ATGTCAGAAAAATGTTTTACATGGA
binding signal (TALER18): 18.5 fold repression

B3: T20 site (dsDNA)
DNA 1: TCTAGACTCTTCACAATGTTCTTAT
DNA 2: ATAAGAACATTGTGAAGAGTCTAGA
binding signal (TALER20): 12.3 fold repression

B4: T17 site (dsDNA)
DNA 1: TATTATTGGCCTTAACCATACTCTT
DNA 2: AAGAGTATGGTTAAGGCCAATAATA
binding signal (TALER17): 195 fold repression

B5: T15 site (dsDNA)
DNA 1: TCCTGACCATTCATCAGCCGTCTAT
DNA 2: ATAGACGGCTGATGAATGGTCAGGA
binding signal (TALER15): 13.7 fold repression
